Measurements from US20180171024A1.

What was measured:
[1] = molecular target: HLA-A2 on cells (tumor cell lines, normal primary cells, PBMCs) (human); assay: flow cytometry, PBMCs #IB, 10 µg/ml
[2] = molecular target: HLA-A2 on cells (tumor cell lines, normal primary cells, PBMCs) (human); assay: flow cytometry, H522 cells, 10 µg/ml
[3] = molecular target: HLA-A2 on other WT1 negative HLA-A2+ cells (other than 501, A498 and SKMEL; members not named); assay: flow cytometry on IM-9 cells (WT1 mRNA -)
[4] = molecular target: HLA-A2 on other WT1 negative HLA-A2+ cells (other than 501, A498 and SKMEL; members not named); assay: flow cytometry on JVM-2 cells (WT1 mRNA -)
[5] = molecular target: Unloaded T2 (Homo sapiens); assay: flow cytometry, unloaded T2 cells
[6] = molecular target: HLA-A2/154 on T2 cells (human); assay: flow cytometry, T2 cells loaded with 154 peptide
[7] = molecular target: HLA-A2 on cells (tumor cell lines, normal primary cells, PBMCs) (human); assay: flow cytometry, SET-2 cells, 10 µg/ml
[8] = molecular target: HLA-A2 on cells (tumor cell lines, normal primary cells, PBMCs) (human); assay: flow cytometry, Malme-3M melanoma cells
[9] = molecular target: HLA-A2 on cells (tumor cell lines, normal primary cells, PBMCs) (human); assay: flow cytometry, WM-266-4 melanoma cells
[10] = molecular target: HLA-A2/WT1 126-134 complex on T2 cells (human); assay: flow cytometry, T2 cells loaded with WT1 [..], 10 µg/ml
[11] = molecular target: HLA-A2 on HLA-A2+/WT1+ SET2 cells (WT1 mRNA positive; WT1 126-134 peptide not detected by mass spectrometry of eluted HLA peptides); assay: flow cytometry on SET-2 cells (WT1 mRNA +)
[12] = molecular target: HLA-A2 on unloaded T2 cells (human); assay: flow cytometry, unloaded T2 cells, 10 µg/ml
[13] = molecular target: HLA-A2/TyrD-S1 on T2 cells (human); assay: flow cytometry, T2 cells loaded with TyrD S1 [..], 10 µg/ml
[14] = molecular target: HLA-A2/TyrD-S2 on T2 cells (human); assay: flow cytometry, T2 cells loaded with TyrD S2 [..], 10 µg/ml
[15] = molecular target: HLA-A2/TyrD-S6 on T2 cells (human); assay: flow cytometry, T2 cells loaded with TyrD S6 [..], 10 µg/ml
[16] = molecular target: HLA-A2 on cells (tumor cell lines, normal primary cells, PBMCs) (human); assay: flow cytometry, 501A melanoma cells, 10 µg/ml
[17] = molecular target: HLA-A2/TyrD-S15 on T2 cells (human); assay: flow cytometry, T2 cells loaded with TyrD S15 [..], 10 µg/ml
[18] = molecular target: HLA-A2/TyrD-S22 on T2 cells (human); assay: flow cytometry, T2 cells loaded with TyrD-S22 [..], 10 µg/ml
[19] = molecular target: HLA-A2/TyrD-S23 on T2 cells (human); assay: flow cytometry, T2 cells loaded with TyrD-S23 [..], 10 µg/ml
[20] = molecular target: HLA-A2/P68 on T2 cells (human); assay: flow cytometry, T2 cells loaded with P68 peptide
[21] = molecular target: HLA-A2/MART1(26) on T2 cells (human); assay: flow cytometry, T2 cells loaded with MART1 peptide
[22] = molecular target: HLA-A2/NFACT on T2 cells (human); assay: flow cytometry, T2 cells loaded with NFACT peptide
[23] = molecular target: HLA-A2/TyrD-S20 on T2 cells (human); assay: flow cytometry, peptide-loaded T2 cells (10^-5 M), PE anti-mouse IgG
[24] = molecular target: HLA-A2/TyrD-S21 on T2 cells (human); assay: as above
[25] = molecular target: HLA-A2/TyrD-S22 on T2 cells (human); assay: as above
[26] = molecular target: HLA-A2/TyrD-S23 on T2 cells (human); assay: as above
[27] = molecular target: HLA-A2/P68 on T2 cells (human); assay: flow cytometry, T2 cells loaded with P68 [..], 10 µg/ml
[28] = molecular target: HLA-A2 on cells (tumor cell lines, normal primary cells, PBMCs) (human); assay: flow cytometry, renal epithelial cells 4100-2, 10 µg/ml
[29] = molecular target: HLA-A2/WT1-S10 on T2 cells (human); assay: flow cytometry, peptide-loaded T2 cells (10^-4-10^-5 M)
[30] = molecular target: HLA-A2/WT1-S11 on T2 cells (human); assay: as above
[31] = molecular target: HLA-A2/WT1-S13 on T2 cells (human); assay: as above
[32] = molecular target: HLA-A2/WT1-S16 on T2 cells (human); assay: as above
[33] = molecular target: HLA-A2/WT1-S22 on T2 cells (human); assay: as above
[34] = molecular target: HLA-A2/WT1-S6 on T2 cells (human); assay: as above
[35] = molecular target: HLA-A2/WT1-S7 on T2 cells (human); assay: as above
[36] = molecular target: HLA-A2 on cells (tumor cell lines, normal primary cells, PBMCs) (human); assay: flow cytometry, renal epithelial cells #4100-2, 10 µg/ml
[37] = molecular target: HLA-A2/Tyrosinase369-377 complex on cells (human); assay: flow cytometry, T2 cells loaded with TyrD [..], 10 µg/ml
[38] = molecular target: HLA-A2/MAGE-A4 230-239 complex on cells (human); assay: flow cytometry, T2 cells loaded with MAGE-A4 [..], 10 µg/ml
[39] = molecular target: HLA-A2/TyrD-S18 on T2 cells (human); assay: flow cytometry, T2 cells loaded with TyrD-S18 [..], 10 µg/ml

Question: Which results are given for BB7.2 (antibody)?
Answer: MFI [1]: 552; MFI [2]: 52.7; MFI [3]: 727; MFI [4]: 238; MFI [5]: 290; MFI [6]: 1920; MFI [7]: 274; MFI [8]: 372; MFI [9]: 64; MFI relative to background [10]: 1420; MFI [11]: 890; MFI relative to background [12]: 286; MFI relative to background [13]: 596; MFI relative to background [14]: 929; MFI relative to background [15]: 516; MFI [16]: 760; MFI relative to background [17]: 642; MFI relative to background [18]: 464; MFI relative to background [19]: 443; MFI [20]: 2660; MFI [21]: 2500; MFI [22]: 2720; MFI relative to background [23]: 445; MFI relative to background [24]: 654; MFI relative to background [25]: 464; MFI relative to background [26]: 443; MFI relative to background [27]: 1220; MFI [28]: 564; MFI [29]: 450; MFI [30]: 449; MFI [31]: 296; MFI [32]: 379; MFI [33]: 376; MFI [34]: 500; MFI [35]: 592; MFI [36]: 1620; MFI relative to background [37]: 430; MFI relative to background [38]: 965; MFI relative to background [39]: 838
